Values joined by “and” are separate entries in the source; they are usually repeats but may differ in a detail not shown here. Equal values may be shown once.
T1: HSV-1 terminase subunit pUL28 (herpes simplex virus 1 (HSV-1, strain …, UniProt P10212 1-785))
T1 sequence: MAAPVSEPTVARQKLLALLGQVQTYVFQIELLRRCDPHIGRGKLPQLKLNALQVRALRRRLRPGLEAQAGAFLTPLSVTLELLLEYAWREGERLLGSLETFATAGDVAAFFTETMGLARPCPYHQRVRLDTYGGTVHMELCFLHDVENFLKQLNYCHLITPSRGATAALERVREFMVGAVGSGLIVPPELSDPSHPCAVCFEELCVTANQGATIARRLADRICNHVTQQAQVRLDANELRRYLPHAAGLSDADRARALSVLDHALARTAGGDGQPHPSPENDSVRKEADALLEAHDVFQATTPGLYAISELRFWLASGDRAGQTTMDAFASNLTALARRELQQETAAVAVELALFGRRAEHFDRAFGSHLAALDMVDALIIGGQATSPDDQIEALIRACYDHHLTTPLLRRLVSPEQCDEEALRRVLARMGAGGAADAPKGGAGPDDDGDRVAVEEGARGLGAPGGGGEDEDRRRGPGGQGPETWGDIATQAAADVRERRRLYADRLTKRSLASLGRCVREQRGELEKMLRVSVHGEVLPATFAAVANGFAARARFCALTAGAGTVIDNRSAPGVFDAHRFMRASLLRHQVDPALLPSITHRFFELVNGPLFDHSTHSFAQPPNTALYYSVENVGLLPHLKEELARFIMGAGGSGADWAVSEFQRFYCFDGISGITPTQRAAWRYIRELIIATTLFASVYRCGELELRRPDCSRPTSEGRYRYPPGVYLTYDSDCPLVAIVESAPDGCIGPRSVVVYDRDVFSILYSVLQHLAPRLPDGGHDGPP

B1: HSV-1 terminase subunit pUL33 (natural protein)
chain: MAGREGRTRQRTLRDTIPDCALRSQTLESLDARYVSRDGAHDAAVWFEDMTPAELEVVFPTTDAKLNYLSRTQRLASLLTYAGPIKAPDDAAAPQTPDTACVHGELLAAKRERFAAVINRFLDLHQILRG
B2: HSV-1 terminase subunit pUL15 (His-pUL15) (natural protein)
chain: MFGQQLASDVQQYLERLEKQRQLKVGADEASAGLTMGGDALRVPFLDFATATPKRHQTVVPGVGTLHDCCEHSPLFSAVARRLLFNSLVPAQLKGRDFGGDHTAKLEFLAPELVRAVARLRFKECAPADVVPQRNAYYSVLNTFQALHRSEAFRQLVHFVRDFAQLLKTSFRASSLTETTGPPKKRAKVDVATHGRTYGTLELFQKMILMHATYFLAAVLLGDHAEQVNTFLRLVFEIPLFSDAAVRHFRQRATVFLVPRRHGKTWFLVPLIALSLASFRGIKIGYTAHIRKATEPVFEEIDACLRGWFGSARVDHVKGETISFSFPDGSRSTIVFASSHNTNGIRGQDFNLLFVDEANFIRPDAVQTIMGFLNQANCKIIFVSSTNTGKASTSFLYNLRGAADELLNVVTYICDDHMPRVVTHTNATACSCYILNKPVFITMDGAVRRTADLFLADSFMQEIIGGQARETGDDRPVLTKSAGERFLLYRPSTTTNSGLMAPDLYVYVDPAFTANTRASGTGVAVVGRYRDDYIIFALEHFFLRALTGSAPADIARCVVHSLTQVLALHPGAFRGVRVAVEGNSSQDSAVAIATHVHTEMHRLLASEGADAGSGPELLFYHCEPPGSAVLYPFFLLNKQKTPAFEHFIKKFNSGGVMASQEIVSATVRLQTDPVEYLLEQLNNLTETVSPNTDVRTYSGKRNGASDDLMVAVIMAIYLAAQAGPPHTFAPITRVS
B3: HSV-1 terminase heterotrimer (pUL15, pUL28, pUL33) (complex)
chain 1: B2 chain
chain 2: T1 sequence
chain 3: B1 chain

Tests used:
Assay in all cases: native MS
[1] = target: Alcohol Dehydrogenase from Saccharomyces cerevisiae (Saccharomyces cerevisiae) (UniProt P00330)
[2] = target: KSHV (HHV-8) pORF68 (TwinStrep-ORF68) (human herpesvirus 8 (KSHV HHV-8))
[3] = target: HSV-1 terminase-associated protein pUL32 (Strep-pUL32) (herpes simplex virus 1 (HSV-1)) (UniProt P10216)
[4] = target: B2
[5] = target: T1, HSV-1 terminase subunit pUL28
native MS = target: the molecule itself

For “Alcohol Dehydrogenase from Saccharomyces cerevisiae (from UniProt P00330 1-348) (enzyme)”, the stoichiometry N [1] was 4.

“KSHV (HHV-8) pORF68 (TwinStrep-ORF68) (natural protein)” showed a stoichiometry N [2] of 10.

“HSV-1 terminase-associated protein pUL32 (Strep-pUL32) (from UniProt P10216 1-596) (natural protein)” was tested, and the stoichiometry N [3] was 3.

B1: binds [4].

B2: binds [5].

B3 was tested, and the “stoichiometry N” value (native MS) was 2 and 3.

Source: article doi:10.1101/2025.02.22.639503 (bioRxiv, 2025)
